Biological target: T1, recombinant Bri2 protein covering residues 113 to 231 comprising the BRICHOS domain (human, UniProt Q9Y287-1 113-231)
T1 sequence (looked up): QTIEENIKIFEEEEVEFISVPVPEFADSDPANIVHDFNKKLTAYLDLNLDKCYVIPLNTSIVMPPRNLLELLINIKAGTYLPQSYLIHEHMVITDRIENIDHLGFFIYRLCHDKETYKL
Experiment: immuno-electron microscopy

binding result: binds
Binder: KCNTATCATQRLANFLVHSSNNFGAILSSTNVGSNTY (peptide, UniProt P10997 34-70, looked up) [islet amyloid polypeptide IAPP 1–37]
